Measurements published in patent publication US20240002497A1.

Experiments:
[1] = molecular target: huNav1.5-β1-β2-β3 (human) (UniProt Q14524); assay: FACS, CHO Flp-In, competitor 1 µM F010300703
[2] = molecular target: huNav1.5-β1-β2-β3 (human) (UniProt Q14524); assay: FACS, CHO Flp-In, competitor 1 µM IRR00092
[3] = molecular target: huNav1.5-β1-β2-β3 (human) (UniProt Q14524); assay: binding FACS, CHO Flp-In, periplasmic extract
[4] = molecular target: huNav1.5-β1-β2-β3 (human) (UniProt Q14524); assay: binding FACS, HEK Flp-In
[5] = molecular target: rhNav1.7α + β1-β2-β3 (rhesus Nav1.7α co-expressed with Navβ1, Navβ2 and Navβ3) (rhesus monkey); assay: FACS, periplasmic extract, CHO Flp-In cells; SD MFI 18
[6] = molecular target: muNav1.7α (murine Nav1.7α) (murine) (UniProt Q62205); assay: FACS, periplasmic extract, HEK Jmp-In cells; SD MFI 16
[7] = molecular target: rhNav1.7α + β1-β2-β3 (rhesus Nav1.7α co-expressed with Navβ1, Navβ2 and Navβ3) (rhesus monkey); assay: FACS, periplasmic extract, CHO Flp-In cells; SD MFI 13
[8] = molecular target: muNav1.7α (murine Nav1.7α) (murine) (UniProt Q62205); assay: FACS, periplasmic extract, HEK Jmp-In cells; SD MFI 1
[9] = molecular target: rhNav1.7α + β1-β2-β3 (rhesus Nav1.7α co-expressed with Navβ1, Navβ2 and Navβ3) (rhesus monkey); assay: FACS, periplasmic extract, CHO Flp-In cells; SD MFI 6
[10] = molecular target: muNav1.7α (murine Nav1.7α) (murine) (UniProt Q62205); assay: FACS, periplasmic extract, HEK Jmp-In cells; SD MFI 0
[11] = molecular target: rhNav1.7α + β1-β2-β3 (rhesus Nav1.7α co-expressed with Navβ1, Navβ2 and Navβ3) (rhesus monkey); assay: FACS, periplasmic extract, CHO Flp-In cells; SD MFI 30
[12] = molecular target: muNav1.7α (murine Nav1.7α) (murine) (UniProt Q62205); assay: FACS, periplasmic extract, HEK Jmp-In cells; SD MFI 19
[13] = molecular target: rhNav1.7α + β1-β2-β3 (rhesus Nav1.7α co-expressed with Navβ1, Navβ2 and Navβ3) (rhesus monkey); assay: FACS, periplasmic extract, CHO Flp-In cells; SD MFI 0
[14] = molecular target: muNav1.7α (murine Nav1.7α) (murine) (UniProt Q62205); assay: FACS, periplasmic extract, HEK Jmp-In cells; SD MFI 15
[15] = molecular target: muNav1.7α (murine Nav1.7α) (murine) (UniProt Q62205); assay: FACS, periplasmic extract, HEK Jmp-In cells; SD MFI 7
[16] = molecular target: muNav1.7α (murine Nav1.7α) (murine) (UniProt Q62205); assay: FACS, periplasmic extract, HEK Jmp-In cells; SD MFI 8
[17] = molecular target: rhNav1.7α + β1-β2-β3 (rhesus Nav1.7α co-expressed with Navβ1, Navβ2 and Navβ3) (rhesus monkey); assay: FACS, periplasmic extract, CHO Flp-In cells; SD MFI 1
[18] = molecular target: rhNav1.7α + β1-β2-β3 (rhesus Nav1.7α co-expressed with Navβ1, Navβ2 and Navβ3) (rhesus monkey); assay: FACS, periplasmic extract, CHO Flp-In cells; SD MFI 10
[19] = molecular target: rhNav1.7α + β1-β2-β3 (rhesus Nav1.7α co-expressed with Navβ1, Navβ2 and Navβ3) (rhesus monkey); assay: FACS, periplasmic extract, CHO Flp-In cells; SD MFI 8
[20] = molecular target: muNav1.7α (murine Nav1.7α) (murine) (UniProt Q62205); assay: FACS, periplasmic extract, HEK Jmp-In cells; SD MFI 21
[21] = molecular target: muNav1.7α (murine Nav1.7α) (murine) (UniProt Q62205); assay: FACS, periplasmic extract, HEK Jmp-In cells; SD MFI 123
[22] = molecular target: muNav1.7α (murine Nav1.7α) (murine) (UniProt Q62205); assay: FACS, periplasmic extract, HEK Jmp-In cells; SD MFI 25
[23] = molecular target: rhNav1.7α + β1-β2-β3 (rhesus Nav1.7α co-expressed with Navβ1, Navβ2 and Navβ3) (rhesus monkey); assay: FACS, periplasmic extract, CHO Flp-In cells; SD MFI 20
[24] = molecular target: huNav1.7α + β1-β2-β3 (human Nav1.7α co-expressed with Navβ1, Navβ2 and Navβ3) (human) (UniProt Q15858); assay: FACS, periplasmic extract, CHO Flp-In cells; SD MFI 16
[25] = molecular target: muNav1.7α (murine Nav1.7α) (murine) (UniProt Q62205); assay: FACS, periplasmic extract, HEK Jmp-In cells; SD MFI 12

B1: F0103PMP478E09 (bispecific antibody)
chain: EVQLVESGGGLVQPGGSLRLSCAASGSIFNINSMAWYRRAPGKQRELVASSTNGGSTNYADSVKGRFTISRDNAKRVYLQMNSLTPEDTAVYYCRALLQPSIYDISRTYWGQGTLVTVSSGGGGSGGGGSGGGGSGGGGSGGGGSGGGGSGGGGSGGGGSGGGGSGGGGSEVQLVESGGGLVQAGGSLRLSCAASGRAFSTLAMGWFRQAPGKEREFVAAISRNGNNSATGDSLKGRFTISRDSTKSTVFLQMNTLKPEDTAVYYCAAISTPSASHPYVRKESYRYWGQGTQVTVSSAAADYKDHDGDYKDHDIDYKDDDDKGAAHHHHHHKAAGGGGG
Question: B1 was tested. Which MFI [1] did it give?
Answer: 833 MFI

Question: What about the MFI [2] of the same binder?
Answer: 2060 MFI

Question: What about the MFI [3] of the same binder?
Answer: 1080 MFI

Question: What about the MFI [4] of the same binder?
Answer: 877 MFI

B2: F0103464B09 N99A library variant (VHH, name in Kabat numbering)
VHH: EVQLVESGGGLVQPGGSLRLSCATTSRAFIRDVFTGWYRRVPGKERELVARIYNGGNTNYADFAKGRFSISRDNAKKMVTLRMSNLKPEDTGVYYCLFSGTIATGREYRSGDYWGQGTLVTVSS
Question: For B2, which Mean MFI [5] is on record?
Answer: 611 MFI

B3: F0103464B09 T100V library variant (VHH, name in Kabat numbering)
VHH: EVQLVESGGGLVQPGGSLRLSCATTSRAFIRDVFTGWYRRVPGKERELVARIYNGGNTNYADFAKGRFSISRDNAKKMVTLRMSNLKPEDTGVYYCLFSGTINVGREYRSGDYWGQGTLVTVSS
Question: Which Mean MFI [6] does the source give for B3 here?
Answer: 1680 MFI

Question: What about the Mean MFI [7] of the same binder?
Answer: 564 MFI

B4: F0103464B09 N99E library variant (VHH, name in Kabat numbering)
VHH: EVQLVESGGGLVQPGGSLRLSCATTSRAFIRDVFTGWYRRVPGKERELVARIYNGGNTNYADFAKGRFSISRDNAKKMVTLRMSNLKPEDTGVYYCLFSGTIETGREYRSGDYWGQGTLVTVSS
Question: Which results are given for B4?
Answer: Mean MFI [8]: 938 MFI; Mean MFI [9]: 528 MFI

B5: F0103464B09 N99D library variant (VHH, name in Kabat numbering)
VHH: EVQLVESGGGLVQPGGSLRLSCATTSRAFIRDVFTGWYRRVPGKERELVARIYNGGNTNYADFAKGRFSISRDNAKKMVTLRMSNLKPEDTGVYYCLFSGTIDTGREYRSGDYWGQGTLVTVSS
Question: With B5 as the binder, how does the Mean MFI [10] read?
Answer: 929 MFI

Question: And the Mean MFI [11]?
Answer: 520 MFI

B6: F0103464B09 T100F library variant (VHH, name in Kabat numbering)
VHH: EVQLVESGGGLVQPGGSLRLSCATTSRAFIRDVFTGWYRRVPGKERELVARIYNGGNTNYADFAKGRFSISRDNAKKMVTLRMSNLKPEDTGVYYCLFSGTINFGREYRSGDYWGQGTLVTVSS
Question: Which results are given for B6?
Answer: Mean MFI [12]: 997 MFI; Mean MFI [11]: 533 MFI

B7: F0103464B09 N99M library variant (VHH, name in Kabat numbering)
VHH: EVQLVESGGGLVQPGGSLRLSCATTSRAFIRDVFTGWYRRVPGKERELVARIYNGGNTNYADFAKGRFSISRDNAKKMVTLRMSNLKPEDTGVYYCLFSGTIMTGREYRSGDYWGQGTLVTVSS
Question: With B7 as the binder, how does the Mean MFI [13] read?
Answer: 523 MFI

Question: What about the Mean MFI [14] of the same binder?
Answer: 936 MFI

B8: F0103464B09 N99V library variant (VHH, name in Kabat numbering)
VHH: EVQLVESGGGLVQPGGSLRLSCATTSRAFIRDVFTGWYRRVPGKERELVARIYNGGNTNYADFAKGRFSISRDNAKKMVTLRMSNLKPEDTGVYYCLFSGTIVTGREYRSGDYWGQGTLVTVSS
Question: How did the Mean MFI [6] turn out when B8 was run?
Answer: 952 MFI

Question: What about the Mean MFI [9] of the same binder?
Answer: 552 MFI

B9: F0103464B09 N99I library variant (VHH, name in Kabat numbering)
VHH: EVQLVESGGGLVQPGGSLRLSCATTSRAFIRDVFTGWYRRVPGKERELVARIYNGGNTNYADFAKGRFSISRDNAKKMVTLRMSNLKPEDTGVYYCLFSGTIITGREYRSGDYWGQGTLVTVSS
Question: With B9 as the binder, how does the Mean MFI [15] read?
Answer: 946 MFI

Question: What about the Mean MFI [9] of the same binder?
Answer: 540 MFI

B10: F0103464B09 N99K library variant (VHH, name in Kabat numbering)
VHH: EVQLVESGGGLVQPGGSLRLSCATTSRAFIRDVFTGWYRRVPGKERELVARIYNGGNTNYADFAKGRFSISRDNAKKMVTLRMSNLKPEDTGVYYCLFSGTIKTGREYRSGDYWGQGTLVTVSS
Question: B10 was tested. Which Mean MFI [16] did it give?
Answer: 923 MFI

Question: And the Mean MFI [17]?
Answer: 537 MFI

B11: F0103464B09 N99L library variant (VHH, name in Kabat numbering)
VHH: EVQLVESGGGLVQPGGSLRLSCATTSRAFIRDVFTGWYRRVPGKERELVARIYNGGNTNYADFAKGRFSISRDNAKKMVTLRMSNLKPEDTGVYYCLFSGTILTGREYRSGDYWGQGTLVTVSS
Question: Which results are given for B11?
Answer: Mean MFI [12]: 919 MFI; Mean MFI [18]: 536 MFI

B12: F0103464B09 N99G library variant (VHH, name in Kabat numbering)
VHH: EVQLVESGGGLVQPGGSLRLSCATTSRAFIRDVFTGWYRRVPGKERELVARIYNGGNTNYADFAKGRFSISRDNAKKMVTLRMSNLKPEDTGVYYCLFSGTIGTGREYRSGDYWGQGTLVTVSS
Question: Which Mean MFI [19] does the source give for B12 here?
Answer: 530 MFI

Question: What about the Mean MFI [20] of the same binder?
Answer: 956 MFI

B13: F0103464B09 N99Q library variant (VHH, name in Kabat numbering)
VHH: EVQLVESGGGLVQPGGSLRLSCATTSRAFIRDVFTGWYRRVPGKERELVARIYNGGNTNYADFAKGRFSISRDNAKKMVTLRMSNLKPEDTGVYYCLFSGTIQTGREYRSGDYWGQGTLVTVSS
Question: With B13 as the binder, how does the Mean MFI [21] read?
Answer: 1490 MFI

Question: And the Mean MFI [18]?
Answer: 546 MFI

B14: F0103464B09 N99F library variant (VHH, name in Kabat numbering)
VHH: EVQLVESGGGLVQPGGSLRLSCATTSRAFIRDVFTGWYRRVPGKERELVARIYNGGNTNYADFAKGRFSISRDNAKKMVTLRMSNLKPEDTGVYYCLFSGTIFTGREYRSGDYWGQGTLVTVSS
Question: Which results are given for B14?
Answer: Mean MFI [8]: 938 MFI; Mean MFI [9]: 516 MFI

B15: F0103464B09 N99C library variant (VHH, name in Kabat numbering)
VHH: EVQLVESGGGLVQPGGSLRLSCATTSRAFIRDVFTGWYRRVPGKERELVARIYNGGNTNYADFAKGRFSISRDNAKKMVTLRMSNLKPEDTGVYYCLFSGTICTGREYRSGDYWGQGTLVTVSS
Question: Which results are given for B15?
Answer: Mean MFI [22]: 930 MFI; Mean MFI [9]: 528 MFI

B16: F0103464B09 N99P library variant (VHH, name in Kabat numbering)
VHH: EVQLVESGGGLVQPGGSLRLSCATTSRAFIRDVFTGWYRRVPGKERELVARIYNGGNTNYADFAKGRFSISRDNAKKMVTLRMSNLKPEDTGVYYCLFSGTIPTGREYRSGDYWGQGTLVTVSS
Question: Which results are given for B16?
Answer: Mean MFI [23]: 554 MFI; Mean MFI [24]: 612 MFI; Mean MFI [25]: 912 MFI

B17: F0103464B09 T100D library variant (VHH, name in Kabat numbering)
VHH: EVQLVESGGGLVQPGGSLRLSCATTSRAFIRDVFTGWYRRVPGKERELVARIYNGGNTNYADFAKGRFSISRDNAKKMVTLRMSNLKPEDTGVYYCLFSGTINDGREYRSGDYWGQGTLVTVSS
Question: B17 was tested. Which Mean MFI [17] did it give?
Answer: 526 MFI

B18: F0103PMP492E09 (bispecific antibody)
chain: EVQLVESGGGLVQPGGSLRLSCAASGSIFNINSMAWYRRAPGKQRELVASSTNGGSTNYADSVKGRFTISRDNAKRVYLQMNSLTPEDTAVYYCRALLQPSIYDISRTYWGQGTLVTVSSGGGGSGGGGSGGGGSGGGGSGGGGSGGGGSGGGGSGGGGSGGGGSGGGGSEVQLVESGGGLVQAGGSLRLSCAASKSILSFAYMRWYRQAPGKQREFVASIAIGGATSYTDSVKGRFTISRDNAKNTVYLQMNSLKPEDTAVYYCSAPAGQYRGQGTLVTVSSAAADYKDHDGDYKDHDIDYKDDDDKGAAHHHHHHKAAGGGGG
Question: Which MFI [1] does the source give for B18 here?
Answer: 825 MFI

Question: And the MFI [2]?
Answer: 1860 MFI

Question: What about the MFI [3] of the same binder?
Answer: 559 MFI

Question: What about the MFI [4] of the same binder?
Answer: 1660 MFI
